{
  "source": "patent US20200197469A1",
  "key": {"[1]": {"target": "purified HIV-1 gp120 (HIV-1)", "assay": "cell-based or functional assay"}, "[2]": {"target": "purified HIV-1 gp120 (HIV-1)", "assay": "SPR (Biacore); gp120 immobilized on the chip, MOMO30 flowed at 6.25 nM to 200 nM; triplicate on separate days"}},
  "data": [
    {"substance": "MOMO30 protein from Momordica balsamina", "values": [
      {"measurement": "IC50 in MAGI infectivity assay, HIV-1 lab strain NL4-3", "setting": "[1]", "value": 0.032, "unit": "nM"},
      {"measurement": "Kd", "setting": "[2]", "value": 5800, "unit": "nM"}
    ]}
  ]
}
